Measured values as given in patent US20140086913A1 (Gilead, published 2014).
Read-outs that look alike come from different tables or passages of the source. Each block holds one binder with its values, some of them ahead of it.

What was measured:
[1] = biological target: DDR1 endogenously expressed on human cancer cell lines (T47D, HCT-116, A431) (human) (UniProt Q08345); test: flow cytometry, HCT116 cells
[2] = biological target: human DDR1 (isoform B) stably expressed on HEK293 cells (human) (UniProt Q08345); test: flow cytometry, HEK293/hDDR1
Sequence of human DDR1 (isoform B) stably expressed on HEK293 cells (human) (Q08345 19-913): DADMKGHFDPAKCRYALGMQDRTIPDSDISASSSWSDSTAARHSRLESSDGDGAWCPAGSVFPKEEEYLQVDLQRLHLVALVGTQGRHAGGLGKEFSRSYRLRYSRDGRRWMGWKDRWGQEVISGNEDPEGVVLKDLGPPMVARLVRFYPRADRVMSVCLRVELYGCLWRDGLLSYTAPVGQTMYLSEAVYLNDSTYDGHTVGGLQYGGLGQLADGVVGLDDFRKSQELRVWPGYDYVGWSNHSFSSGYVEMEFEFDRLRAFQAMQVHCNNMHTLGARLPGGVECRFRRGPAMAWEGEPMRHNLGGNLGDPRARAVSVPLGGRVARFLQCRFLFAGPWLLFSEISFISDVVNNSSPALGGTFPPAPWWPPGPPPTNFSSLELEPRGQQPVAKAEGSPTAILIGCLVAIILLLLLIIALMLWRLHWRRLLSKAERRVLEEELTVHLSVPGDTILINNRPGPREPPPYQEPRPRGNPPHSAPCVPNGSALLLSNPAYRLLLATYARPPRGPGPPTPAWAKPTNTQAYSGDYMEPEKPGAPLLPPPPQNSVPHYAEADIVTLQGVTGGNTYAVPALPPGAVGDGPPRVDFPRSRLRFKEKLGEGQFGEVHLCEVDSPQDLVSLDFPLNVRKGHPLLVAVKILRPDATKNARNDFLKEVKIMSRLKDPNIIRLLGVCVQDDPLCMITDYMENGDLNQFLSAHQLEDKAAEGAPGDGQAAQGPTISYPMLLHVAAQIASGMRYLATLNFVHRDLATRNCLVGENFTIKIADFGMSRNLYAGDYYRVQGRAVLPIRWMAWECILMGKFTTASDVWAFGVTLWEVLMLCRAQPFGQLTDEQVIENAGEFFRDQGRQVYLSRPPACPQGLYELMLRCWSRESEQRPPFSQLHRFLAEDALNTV

[3] = biological target: DDR1 endogenously expressed on human cancer cell lines (T47D, HCT-116, A431) (human) (UniProt Q08345); test: cell-based or functional assay
[4] = biological target: DDR1 with a ProLink Tag (PK) in engineered U20S cells (DiscoveRx) (UniProt Q08345); test: cell-based or functional assay
mouse ECD-DDR1-Fc [5] = biological target: T1, mouse ECD-DDR1-Fc (mouse; human, UniProt Q03146 22-414); test: ELISA, coated antigen, apparent KD
T1 construct: also called mouse DDR1-ECD; wild-type mouse DDR1-ECD; not shown: human IgG1 Fc of the vector pFuse-hIgG1-Fc1 (Invivogen)
T1 sequence: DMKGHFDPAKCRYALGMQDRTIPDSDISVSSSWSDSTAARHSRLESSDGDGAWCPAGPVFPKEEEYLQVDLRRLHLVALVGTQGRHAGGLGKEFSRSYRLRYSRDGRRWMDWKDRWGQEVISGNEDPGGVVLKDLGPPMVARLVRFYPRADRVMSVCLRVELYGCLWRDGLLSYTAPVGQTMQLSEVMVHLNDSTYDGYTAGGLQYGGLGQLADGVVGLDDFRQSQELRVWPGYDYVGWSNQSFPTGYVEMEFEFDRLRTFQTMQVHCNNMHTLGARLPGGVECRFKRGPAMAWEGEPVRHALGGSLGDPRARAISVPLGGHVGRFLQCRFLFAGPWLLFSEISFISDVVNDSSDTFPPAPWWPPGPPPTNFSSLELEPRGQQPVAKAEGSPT
Protocol: (§1) In this study, ELISA was used to determine the affinity of murine anti-DDR1 monoclonal antibodies to the extracellular domain (ECD) of either human or murine DDR1. A 96-well MaxiSorb ELISA plates (Nunc) were coated with 2 μg/mL of one of three purified recombinant tagged proteins: human ECD-DDR1-His protein, human ECD-DDR1-Fc, or mouse ECD-DDR1-Fc overnight at 4° C. The next day, the plates were blocked with 5% bovine serum albumin (BSA, Jackson Immunoresearch) prior to the addition of serially diluted anti-DDR1 monoclonal antibodies. Antibodies were incubated for 1 hr at room temperature. The binding of antibody to the antigen was detected by incubating samples with anti-mouse IgG-HRP (horse radish peroxidase) secondary detection antibody (Jackson Immunoresearch) for 1 hr. After a washing step, 3,3′,5,5″-tetramethylbenzidine (TMB) reagent was added for HRP to produce a colorimetric signal. The reaction was stopped by addition of 1M hydrochloric acid after 2 minutes and measured for absorbance (optical density, OD) at 450λ on a Molecular Devices plate reader. The OD values were plotted against antibody concentration and fitted using a using 4-parameter logistic equation in SoftMax software (Molecular Devices). The apparent affinity constant (KD) was taken from the C-parameter of the equation (y=(A−D)/(1+(x/C)̂B)+D). The apparent affinity constants were summarized (in some cases shown as average values) in Table 10 below. Lower value indicates higher binding affinity of the antibody to the antigen.

[6] = biological target: T2, human ECD-DDR1-His protein (human, UniProt Q08345 21-416); test: ELISA, coated antigen, apparent KD
T2 construct: also called huDDR1-ECD-His; DDR1ECD-6Xhis; not shown: His tag
Protocol: as §1

[7] = biological target: T3, DDR1ECD-Fc (R&D Systems, Catalog #2396-DR) (human, UniProt Q08345 21-416); test: ELISA, coated antigen, apparent KD
T3 construct: range 21-416; construct as described for the bought immunogen; also called human ECD-DDR1-Fc; Fc-ECD-DR1; not shown: human IgG1, Pro100-Lys330
Protocol: as §1

[8] = biological target: DDR1 endogenously expressed on human cancer cell lines (T47D, HCT-116, A431) (human) (UniProt Q08345); test: flow cytometry, T47D cells
[9] = biological target: T4, human DDR2 stably expressed on HEK293 cells (human, UniProt Q16832 22-855); test: flow cytometry, HEK293/hDDR2
T4 construct: whole, on cells; also called hDDR2
T4 sequence (looked up): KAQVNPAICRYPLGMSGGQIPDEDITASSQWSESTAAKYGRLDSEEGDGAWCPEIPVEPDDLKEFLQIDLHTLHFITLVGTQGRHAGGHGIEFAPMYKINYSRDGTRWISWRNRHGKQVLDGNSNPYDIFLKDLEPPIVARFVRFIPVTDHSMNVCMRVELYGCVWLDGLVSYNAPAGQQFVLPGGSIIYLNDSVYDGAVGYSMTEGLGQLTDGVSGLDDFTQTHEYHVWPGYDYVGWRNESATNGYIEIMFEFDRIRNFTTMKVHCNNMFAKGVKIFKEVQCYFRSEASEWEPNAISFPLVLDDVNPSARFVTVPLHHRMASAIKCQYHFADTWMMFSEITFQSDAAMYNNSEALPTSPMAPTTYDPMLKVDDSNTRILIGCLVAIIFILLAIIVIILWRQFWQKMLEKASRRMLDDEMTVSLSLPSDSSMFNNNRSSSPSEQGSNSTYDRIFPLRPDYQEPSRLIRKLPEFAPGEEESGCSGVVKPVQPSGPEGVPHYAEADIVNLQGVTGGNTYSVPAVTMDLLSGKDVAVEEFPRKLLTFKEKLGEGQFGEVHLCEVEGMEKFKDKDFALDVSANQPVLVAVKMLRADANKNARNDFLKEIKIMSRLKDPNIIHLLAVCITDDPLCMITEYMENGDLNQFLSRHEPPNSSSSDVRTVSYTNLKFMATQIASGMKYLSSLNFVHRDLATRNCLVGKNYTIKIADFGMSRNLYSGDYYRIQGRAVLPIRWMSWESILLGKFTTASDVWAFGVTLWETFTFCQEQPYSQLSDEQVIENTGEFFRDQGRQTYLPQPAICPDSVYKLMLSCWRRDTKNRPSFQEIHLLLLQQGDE
Protocol: Additional monoclonal antibodies were obtained from individual hybridomas in Example 1 and were characterized for their properties.
Cells were cultured in DMEM with 10% FBS and 0.8 mg/mL hygromycin. When cells reached 60-80% confluence, they were centrifuged at 1,200 rpm for 5 minutes, suspended in FACS buffer (1×PBS, 1% BSA), and aliquoted into a 96-well plate at 1×10⁶ cells per well. The anti-DDR1 monoclonal antibodies or appropriate isotype controls at 2 μg per 1×10⁶ cells were added and incubated at 4° C. for 1 hr. The cells were washed twice with FACS buffer then stained with the anti-IgG-PE secondary antibody at 10 μL per well at 4° C. for 1 hr. The cells were washed again and measured for the MFI values or signals using flow cytometry (LSR Fortessa instrument, BD Biosciences). Background MFI signals from vector-only cells (i.e. no DDR1 or DDR2 expression) was subtracted from those of the cells treated with antibodies. Higher MFI values or signals indicated increased binding or specificity of the anti-DDR1 antibodies to the DDR1 on the cell surface.

[10] = biological target: human DDR1 (isoform B) stably expressed on HEK293 cells (human) (UniProt Q08345); test: flow cytometry, HEK293/human DDR1, normalized to empty-vector cells
[11] = biological target: T3, DDR1ECD-Fc (R&D Systems, Catalog …); test: ELISA
[12] = biological target: T5, human DDR2 stably expressed on HEK293 cells (human) (UniProt Q16832); test: flow cytometry, HEK293/hDDR2
T5 sequence (looked up): T4 sequence (looked up)

[13] = biological target: DDR1 endogenously expressed on human cancer cell lines (T47D, HCT-116, A431) (human) (UniProt Q08345); test: cell-based or functional assay; remark: listed apart in the source
[14] = biological target: DDR1 with a ProLink Tag (PK) in engineered U20S cells (DiscoveRx), Q08345; test: cell-based or functional assay
mouse ECD-DDR1-Fc [15] = biological target: T1, mouse ECD-DDR1-Fc; test: ELISA, coated antigen
Protocol: as §1

[16] = biological target: T3, DDR1ECD-Fc (R&D Systems, Catalog …); test: ELISA, coated antigen, apparent KD; human ECD-DDR1-Fc coated on the plate, not the His-tagged or mouse antigen
Protocol: as §1, with “The apparent affinity constants were summarized (in some cases shown as average values) in Table 10 below. Lower value indicates higher binding affinity of the antibody to the antigen.” left out

- MFI [1]: 1200 MFI
- MFI [2]: 7500 MFI
- EC50, DDR1 phospho-specific ELISA (T47D) [3]: 660 pM
- EC50, cluster formation assay (A431 cells) [3]: 880 pM
- Maximal inhibition, DDR1 phospho-specific ELISA (T47D) [3]: 100%
- NPI of cluster formation at 66 nM (A431 cells) [3]: 126%
- Mean EC50, DDR1 Tyr513 phosphorylation assay (U20S) [4]: 2500 pM
- Kd (mouse ECD-DDR1-Fc [5]): 28000 pM
- Kd [6]: 391 pM
- Kd [7]: 418 pM
- MFI [8]: 4620 MFI
- MFI [9]: 384 MFI
B1: AB2061 (antibody, V domains shown)
VH: EIQLQQSGPELVNPGASVKVSCKASGYSFTDYNMYWVKQSHGKSLEWIGYIDPYNGGTSYNQKFKGKATLTVDKSSSTAFMHLNSLTSEDSAVYYCAREYYGSRLWYFDVWGAGTAVTVSS
VL: DIVMTQSPSSLAMSVGQKVTMSCKSSQSLLNRNNQKNYLAWYQQKPGQSPKLLVYFASTRESGVPDRFIGSGSGTDFTLTLSSVRAEDLAENFCQQHYSTPFTFGSGTRLEIKR
notes: mouse hybridoma mAb

- MFI [10]: 7810 MFI
- MFI [1]: 1470 MFI
- MFI [2]: 7810 MFI
- EC50, DDR1 phospho-specific ELISA (T47D) [3]: 470 pM
- Maximal inhibition, DDR1 phospho-specific ELISA (T47D) [3]: 100%
- NPI of cluster formation at 66 nM (A431 cells) [3]: 112%
- Mean EC50, DDR1 Tyr513 phosphorylation assay (U20S) [4]: 1500 pM
- Kd [11]: 259 pM
- Kd (mouse ECD-DDR1-Fc [5]): 28500 pM
- Kd [6]: 470 pM
- Kd [7]: 259 pM
- MFI [8]: 4420 MFI
- MFI [9]: 382 MFI
B2: AB2074 (antibody, V domains shown)
VH: B1 VH
VL: B1 VL
notes: mouse hybridoma mAb

- MFI [1]: 572 MFI
- MFI [2]: 3140 MFI
- MFI [12]: 313 MFI
- Kd (mouse ECD-DDR1-Fc [5]): 2890 pM
- Kd [6]: 418 pM
- Kd [7]: 669 pM
- EC50, DDR1 phospho-specific ELISA (T47D) [13]: 4670 pM
- EC50, cluster formation assay (A431 cells) [13]: 1240 pM
- Maximal inhibition, DDR1 phospho-specific ELISA (T47D) [13]: 100%
- MFI [8]: 1220 MFI
- Mean EC50, DDR1 Tyr513 phosphorylation assay (U20S) [14]: 2200 pM
B3: AB2080 (antibody, V domains shown)
VH: EVQLQQSGPELVKPGASMKISCKASGYSFTGYTMTWVKQSHGKNLEWIGLINPYIGVTSYNQKFKGKATLTVDKSSSTAYMELLSLTSEDSAVYYCARLYDRGGRYAMDYWGQGTSVTVSS
VL: QIVLTQSPAIMSASPGEKVPMTCSASSSVSFMHWYQQKSGTSPKRWIYDTSKLASGVPARFSGSGSGTSYSLTISNMEAEDAATYYCQQWNSDPWTFGGGSKL
notes: mouse hybridoma mAb

- MFI [1]: 1010 MFI
- MFI [2]: 7240 MFI
- binding result (mouse ECD-DDR1-Fc [15]): no binding
- Kd [16]: 268 pM
- Kd [6]: 233 pM
- EC50, DDR1 phospho-specific ELISA (T47D) [13]: 1070 pM
- EC50, cluster formation assay (A431 cells) [13]: 9720 pM
- Maximal inhibition, DDR1 phospho-specific ELISA (T47D) [13]: 100%
- NPI of cluster formation at 66 nM (A431 cells) [13]: 102%
- MFI [8]: 3590 MFI
- Mean EC50, DDR1 Tyr513 phosphorylation assay (U20S) [14]: 4500 pM
- MFI [9]: 170 MFI
B4: AB2002 (antibody, V domains shown)
VH: EVNLVESGGGLVKPGGSLKLSCAASGFTFSTYAMSWVRQTPEKRLEWVASISSGGITHYPDSMKGRFTVSRDNARNILYLQMRSLRSEDTAKYYCARGRSSMIPDYWGQGTSVSVSS
VL: DIVMTQSHKFMSTSVGDRVSITCKASQDVGTAVAWYQQKPGQSPKLLIYWASTRHTGVPDRFTGSGSGTDFTLTISNVQSEDLADYFCQQYSTYPLTFGAGTKLELKR
notes: mouse hybridoma mAb
